Data from the supplement of paper PMC10065799, “High-throughput profiling of sequence recognition by tyrosine kinases and SH2 domains using bacterial peptide display” (eLife, 2023).

What was measured:
Jak2 = Jak2 (UniProt O60674); test: phosphorylation enrichment, bacterial display (enrichment ratio); higher = better substrate or ligand; peptides without Tyr show the background
FGFR1 = FGFR1 (UniProt P11362); test: as above
AncSZ = test: as above
Fyn = Fyn (UniProt P06241); test: as above
Hck = Hck (UniProt P08631); test: as above
EPHB1 = EPHB1 (UniProt P54762); test: as above
c-Abl (mouse) = test: as above
FGFR3 = FGFR3 (UniProt P22607); test: as above
Fes = Fes (UniProt P07332); test: as above
Fer (mouse) = test: as above
EPHB2 = EPHB2 (UniProt P29323); test: as above
MERTK = MERTK (UniProt Q12866); test: as above
c-Src = test: as above
c-Src SH2 = test: SH2 binding enrichment of the phosphorylated peptide, bacterial display (enrichment ratio); higher = better substrate or ligand; peptides without Tyr show the background
Grb2 SH2 = Grb2 SH2 (UniProt P62993); test: as above
SHP2-C SH2 = test: as above
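Throughout, for SH2 binding enrichment of the phosphorylated peptide, bacterial display: peptide library displayed on the E. coli surface as eCPX fusions, selected cells deep-sequenced, score is each peptide's frequency after selection divided by its frequency in the input.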
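Throughout, for phosphorylation enrichment, bacterial display: 11-residue human phosphosite peptides and single-mutation variants displayed on the E. coli surface, counted by deep sequencing, each peptide's frequency after selection divided by its frequency in the unselected input library; frequency after pTyr selection over input frequency; kinase dosed for 20-30% of maximal phosphorylation in three min.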

EPHB1, sequence (P54762 whole entry, looked up): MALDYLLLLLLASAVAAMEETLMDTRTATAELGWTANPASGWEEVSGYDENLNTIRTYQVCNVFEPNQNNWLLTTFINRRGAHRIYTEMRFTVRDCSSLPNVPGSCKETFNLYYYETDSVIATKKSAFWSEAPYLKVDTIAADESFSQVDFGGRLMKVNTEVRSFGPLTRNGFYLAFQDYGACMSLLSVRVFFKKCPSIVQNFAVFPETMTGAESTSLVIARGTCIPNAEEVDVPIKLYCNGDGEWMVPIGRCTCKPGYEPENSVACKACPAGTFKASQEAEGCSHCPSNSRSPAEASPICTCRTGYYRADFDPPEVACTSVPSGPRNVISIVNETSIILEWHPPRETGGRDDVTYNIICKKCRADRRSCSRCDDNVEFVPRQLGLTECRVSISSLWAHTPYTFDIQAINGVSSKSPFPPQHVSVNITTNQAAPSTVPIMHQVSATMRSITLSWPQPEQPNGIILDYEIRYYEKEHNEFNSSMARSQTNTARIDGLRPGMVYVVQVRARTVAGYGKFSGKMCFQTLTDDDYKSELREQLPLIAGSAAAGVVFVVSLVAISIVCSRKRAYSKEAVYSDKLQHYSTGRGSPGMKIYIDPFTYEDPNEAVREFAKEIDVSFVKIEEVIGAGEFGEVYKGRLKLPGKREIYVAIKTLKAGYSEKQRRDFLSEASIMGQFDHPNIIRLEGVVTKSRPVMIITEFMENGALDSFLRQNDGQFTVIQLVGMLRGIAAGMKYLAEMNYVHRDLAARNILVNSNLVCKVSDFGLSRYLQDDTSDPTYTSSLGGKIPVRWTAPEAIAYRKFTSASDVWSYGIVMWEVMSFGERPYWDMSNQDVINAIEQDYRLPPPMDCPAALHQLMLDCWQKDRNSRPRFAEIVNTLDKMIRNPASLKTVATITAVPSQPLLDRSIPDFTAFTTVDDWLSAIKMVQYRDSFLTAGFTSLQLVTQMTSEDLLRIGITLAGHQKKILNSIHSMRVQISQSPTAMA
EPHB2, sequence (P29323 whole entry, looked up): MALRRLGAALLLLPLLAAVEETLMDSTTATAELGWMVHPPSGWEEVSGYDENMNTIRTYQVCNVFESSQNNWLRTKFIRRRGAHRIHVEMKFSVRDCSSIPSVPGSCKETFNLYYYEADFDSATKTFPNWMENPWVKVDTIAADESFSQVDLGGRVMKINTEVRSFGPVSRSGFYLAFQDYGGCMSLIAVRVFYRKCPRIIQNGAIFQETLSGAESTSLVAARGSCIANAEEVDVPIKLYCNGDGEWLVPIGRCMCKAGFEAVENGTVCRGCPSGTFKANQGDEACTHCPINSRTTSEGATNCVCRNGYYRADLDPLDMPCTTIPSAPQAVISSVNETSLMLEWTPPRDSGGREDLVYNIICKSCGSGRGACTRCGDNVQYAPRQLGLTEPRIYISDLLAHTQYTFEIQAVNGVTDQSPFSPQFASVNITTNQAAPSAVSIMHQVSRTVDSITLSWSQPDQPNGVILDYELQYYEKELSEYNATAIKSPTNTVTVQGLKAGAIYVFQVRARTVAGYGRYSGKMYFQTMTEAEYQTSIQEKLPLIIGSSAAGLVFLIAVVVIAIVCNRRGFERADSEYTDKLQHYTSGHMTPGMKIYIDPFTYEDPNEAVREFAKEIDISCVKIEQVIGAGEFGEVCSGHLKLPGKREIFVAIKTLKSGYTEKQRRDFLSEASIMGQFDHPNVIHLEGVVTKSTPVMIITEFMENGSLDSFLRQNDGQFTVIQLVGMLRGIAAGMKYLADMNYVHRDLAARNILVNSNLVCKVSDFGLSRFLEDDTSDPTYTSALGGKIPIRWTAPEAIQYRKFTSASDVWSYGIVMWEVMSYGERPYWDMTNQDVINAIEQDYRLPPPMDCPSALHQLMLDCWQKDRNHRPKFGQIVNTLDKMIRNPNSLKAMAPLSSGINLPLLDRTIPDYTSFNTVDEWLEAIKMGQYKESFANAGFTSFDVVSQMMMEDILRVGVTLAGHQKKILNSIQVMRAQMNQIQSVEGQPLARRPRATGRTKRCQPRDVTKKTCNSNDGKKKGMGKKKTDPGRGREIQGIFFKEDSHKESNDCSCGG
FGFR1, sequence (P11362 whole entry, looked up): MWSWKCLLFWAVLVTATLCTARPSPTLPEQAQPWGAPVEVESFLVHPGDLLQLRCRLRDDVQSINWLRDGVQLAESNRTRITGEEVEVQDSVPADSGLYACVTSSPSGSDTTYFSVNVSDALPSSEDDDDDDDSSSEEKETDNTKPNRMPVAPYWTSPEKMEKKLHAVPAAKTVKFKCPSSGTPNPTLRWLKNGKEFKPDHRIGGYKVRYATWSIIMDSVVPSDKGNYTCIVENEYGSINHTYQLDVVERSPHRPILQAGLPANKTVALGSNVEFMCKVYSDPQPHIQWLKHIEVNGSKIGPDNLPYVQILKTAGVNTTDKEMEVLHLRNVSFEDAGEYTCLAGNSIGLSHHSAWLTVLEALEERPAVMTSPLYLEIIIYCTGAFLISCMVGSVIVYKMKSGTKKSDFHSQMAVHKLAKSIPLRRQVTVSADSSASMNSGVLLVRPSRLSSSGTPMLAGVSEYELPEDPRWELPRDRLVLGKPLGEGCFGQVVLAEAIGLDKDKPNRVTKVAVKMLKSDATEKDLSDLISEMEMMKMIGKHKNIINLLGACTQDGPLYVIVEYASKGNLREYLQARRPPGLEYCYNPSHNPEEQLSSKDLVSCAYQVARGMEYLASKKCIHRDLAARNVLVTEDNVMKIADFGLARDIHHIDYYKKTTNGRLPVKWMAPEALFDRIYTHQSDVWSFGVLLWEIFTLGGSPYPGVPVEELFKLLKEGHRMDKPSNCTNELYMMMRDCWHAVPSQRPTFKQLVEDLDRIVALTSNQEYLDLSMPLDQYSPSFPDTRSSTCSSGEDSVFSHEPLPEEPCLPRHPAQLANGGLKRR
FGFR3, sequence (P22607 whole entry, looked up): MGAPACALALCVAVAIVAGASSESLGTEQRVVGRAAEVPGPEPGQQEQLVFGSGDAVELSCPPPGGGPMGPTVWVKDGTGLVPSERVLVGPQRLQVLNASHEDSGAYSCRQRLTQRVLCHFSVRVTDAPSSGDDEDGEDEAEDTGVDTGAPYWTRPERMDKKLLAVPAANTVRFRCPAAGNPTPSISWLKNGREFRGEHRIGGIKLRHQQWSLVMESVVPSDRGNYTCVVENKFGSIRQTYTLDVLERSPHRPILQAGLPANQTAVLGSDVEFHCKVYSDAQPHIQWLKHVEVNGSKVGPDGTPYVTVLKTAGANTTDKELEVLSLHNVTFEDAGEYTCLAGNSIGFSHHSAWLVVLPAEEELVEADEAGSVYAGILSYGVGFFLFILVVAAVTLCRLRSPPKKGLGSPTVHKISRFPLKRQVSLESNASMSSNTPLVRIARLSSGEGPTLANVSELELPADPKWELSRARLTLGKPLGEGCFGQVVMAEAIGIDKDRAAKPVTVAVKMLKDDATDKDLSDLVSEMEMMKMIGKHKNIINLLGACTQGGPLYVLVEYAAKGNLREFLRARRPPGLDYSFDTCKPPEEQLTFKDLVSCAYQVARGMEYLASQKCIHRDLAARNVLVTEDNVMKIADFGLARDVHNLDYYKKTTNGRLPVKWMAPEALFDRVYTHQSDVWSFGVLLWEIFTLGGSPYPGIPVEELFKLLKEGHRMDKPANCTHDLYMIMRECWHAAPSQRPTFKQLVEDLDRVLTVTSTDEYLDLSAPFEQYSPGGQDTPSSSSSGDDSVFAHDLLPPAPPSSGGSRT
Grb2 SH2, sequence (P62993 whole entry, looked up): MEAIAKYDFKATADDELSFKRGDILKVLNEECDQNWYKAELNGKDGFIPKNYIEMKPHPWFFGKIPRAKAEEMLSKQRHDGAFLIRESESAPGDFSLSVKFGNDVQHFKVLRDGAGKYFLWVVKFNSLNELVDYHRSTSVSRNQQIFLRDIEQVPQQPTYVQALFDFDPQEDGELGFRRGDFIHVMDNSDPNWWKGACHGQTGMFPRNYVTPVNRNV
Hck, sequence (P08631 whole entry, looked up): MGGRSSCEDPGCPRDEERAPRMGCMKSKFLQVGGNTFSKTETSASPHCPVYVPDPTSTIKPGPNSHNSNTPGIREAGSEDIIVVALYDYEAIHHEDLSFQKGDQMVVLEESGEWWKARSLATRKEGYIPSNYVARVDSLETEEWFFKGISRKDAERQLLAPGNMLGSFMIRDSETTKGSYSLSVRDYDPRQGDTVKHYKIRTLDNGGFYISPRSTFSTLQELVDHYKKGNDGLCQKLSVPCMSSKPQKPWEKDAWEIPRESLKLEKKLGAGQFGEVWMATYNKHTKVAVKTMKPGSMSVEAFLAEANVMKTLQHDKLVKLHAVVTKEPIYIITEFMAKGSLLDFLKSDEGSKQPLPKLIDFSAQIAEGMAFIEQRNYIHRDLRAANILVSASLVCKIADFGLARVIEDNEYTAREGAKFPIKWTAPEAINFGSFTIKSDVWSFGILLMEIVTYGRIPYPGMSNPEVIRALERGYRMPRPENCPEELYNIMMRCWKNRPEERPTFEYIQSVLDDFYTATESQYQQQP
Fyn, sequence (P06241 whole entry, looked up): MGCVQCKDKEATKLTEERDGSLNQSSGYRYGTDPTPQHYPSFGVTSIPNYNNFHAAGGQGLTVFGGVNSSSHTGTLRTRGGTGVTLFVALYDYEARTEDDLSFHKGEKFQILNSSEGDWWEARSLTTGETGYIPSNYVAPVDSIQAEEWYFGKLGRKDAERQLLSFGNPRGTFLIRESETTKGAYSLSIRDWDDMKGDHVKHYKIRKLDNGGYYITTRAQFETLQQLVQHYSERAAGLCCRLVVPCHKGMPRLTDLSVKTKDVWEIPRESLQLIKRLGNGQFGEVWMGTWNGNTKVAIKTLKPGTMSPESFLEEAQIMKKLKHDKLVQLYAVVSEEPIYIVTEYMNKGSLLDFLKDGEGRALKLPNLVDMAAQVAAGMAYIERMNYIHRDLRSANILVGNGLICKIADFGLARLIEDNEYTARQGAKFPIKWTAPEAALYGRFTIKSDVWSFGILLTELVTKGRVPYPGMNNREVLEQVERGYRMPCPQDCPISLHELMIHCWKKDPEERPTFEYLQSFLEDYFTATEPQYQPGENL

Sequence | phosphorylation enrichment (Jak2) | phosphorylation enrichment (FGFR1) | phosphorylation enrichment (AncSZ) | phosphorylation enrichment (Fyn) | phosphorylation enrichment (Hck) | phosphorylation enrichment (EPHB1) | phosphorylation enrichment (c-Abl (mouse)) | phosphorylation enrichment (FGFR3) | phosphorylation enrichment (Fes) | phosphorylation enrichment (Fer (mouse)) | phosphorylation enrichment (EPHB2) | phosphorylation enrichment (MERTK) | phosphorylation enrichment (c-Src) | SH2 binding enrichment (c-Src SH2) | SH2 binding enrichment (Grb2 SH2) | SH2 binding enrichment (SHP2-C SH2)
HKNNNYEPNLF [BRCA2_Y57] | 0.477 | 1.2 | 0.739 | 0.577 | 0.61 | 1.95 | 0.563 | 0.508 | 0.767 | 0.62 | 0.89 | 0.539 | 0.579 | 0.413 | 0.637 | 0.502
QGLRLYRTHLA [BTK_Y617_P619T] | 0.577 | 0.306 | 0.509 | 0.339 | 0.317 | 0.359 | 0.448 | 0.365 | 0.478 | 0.42 | 0.486 | 0.333 | 0.312 | 1.08 | 1.34 | 1.31
LVQAEYWHDRI [PPT1_Y185_P189R] | 1.25 | 3.27 | 1.16 | 0.396 | 0.605 | 0.684 | 0.868 | 2.08 | 1 | 0.706 | 0.896 | 0.522 | 0.603 | 0.685 | 0.699 | 0.511
LKKLEYLNLAL [LRRC6_Y70] | 1.23 | 1.36 | 1.05 | 0.408 | 0.489 | 0.81 | 0.574 | 1.14 | 1.43 | 0.549 | 0.987 | 0.296 | 0.367 | 0.424 | 2.59 | 1.49
FDDIAYIRKNL [PIK3CA_Y1021_T1025N] | 0.494 | 0.432 | 0.864 | 0.403 | 0.5 | 0.409 | 0.483 | 0.56 | 0.852 | 0.361 | 0.506 | 0.416 | 0.379 | 0.556 | 0.768 | 0.759
YRQLPYCPSVE [CTNND2_Y508_Q507P] | 1.41 | 1.48 | 1.51 | 0.647 | 1.09 | 0.692 | 5.88 | 1.41 | 1.53 | 0.804 | 0.747 | 0.728 | 0.881 | 0.494 | 0.686 | 0.585
NRLTDYYEPLL [BBS10_Y536] | 1.63 | 11 | 2.64 | 1.03 | 3.28 | 8.92 | 1.61 | 7.93 | 0.826 | 2.11 | 6.55 | 3.6 | 1.33 | 1.93 | 0.788 | 0.755
HEVHIYEKSGA [ARPC1B_Y35] | 1.06 | 0.673 | 1.38 | 1.01 | 1.68 | 1.1 | 1.69 | 0.993 | 1.74 | 1.03 | 0.611 | 0.77 | 1.48 | 2.29 | 0.817 | 0.667
GHMFAYDWISI [BEST1_Y227_L224M_YF] | 0.842 | 3.48 | 1.47 | 0.935 | 1.78 | 1.05 | 0.922 | 2.15 | 2.68 | 13.8 | 0.933 | 7.14 | 1.28 | 1.15 | 1.25 | 1.03
GRRGQYVMPSE [TTC7A_Y396_L399P] | 0.323 | 0.433 | 0.586 | 0.415 | 0.41 | 0.356 | 0.482 | 0.394 | 0.557 | 0.39 | 0.481 | 0.465 | 0.41 | 1.92 | 0.782 | 0.519
SNMPTYSGHFT [GRIN2A_Y1224] | 0.653 | 0.354 | 0.529 | 1.71 | 1.47 | 0.636 | 0.457 | 0.428 | 0.557 | 3.39 | 0.602 | 0.74 | 2.04 | 0.414 | 0.68 | 0.88
LITTLYIGFLD [KCNQ1_Y267_G272D] | 3.07 | 0.777 | 2.56 | 2.56 | 1.71 | 1.25 | 2.36 | 1.35 | 3.12 | 1.78 | 1.16 | 0.929 | 4.15 | 0.744 | 1.09 | 0.906
QRNEEYCLLDS [ITK_Y198_R193Q] | 1.85 | 1.74 | 1.7 | 0.735 | 0.707 | 1.11 | 1.67 | 1.37 | 2.35 | 0.862 | 0.995 | 0.861 | 0.963 | 0.599 | 0.924 | 0.775
TRNVRYLTLDI [AKR1C2_Y305_N300T] | 0.684 | 0.421 | 0.633 | 0.407 | 0.487 | 0.787 | 0.557 | 0.634 | 0.887 | 0.429 | 0.521 | 0.372 | 0.384 | 1.73 | 0.985 | 6.49
KTDVRYRSLGG [DYSF_Y1858_H1857R] | 0.553 | 0.372 | 0.446 | 0.35 | 0.314 | 0.333 | 0.473 | 0.472 | 0.472 | 0.414 | 0.312 | 0.346 | 0.368 | 0.383 | 0.898 | 0.634
